In US20110065176A1 (PHARMABCINE, published 2011):

Target: T1, KDR (VEGFR-2) expressed on the cell surface (human, UniProt P35968 20-1356)
T1 construct: whole, on cells; also called endogenous human KDR; KDR of HUVEC cells
Assay: FACS on HUVEC cells pretreated with 20 ng/ml VEGF, against IMC-1C11 IgG

T1 sequence (P35968 20-1356): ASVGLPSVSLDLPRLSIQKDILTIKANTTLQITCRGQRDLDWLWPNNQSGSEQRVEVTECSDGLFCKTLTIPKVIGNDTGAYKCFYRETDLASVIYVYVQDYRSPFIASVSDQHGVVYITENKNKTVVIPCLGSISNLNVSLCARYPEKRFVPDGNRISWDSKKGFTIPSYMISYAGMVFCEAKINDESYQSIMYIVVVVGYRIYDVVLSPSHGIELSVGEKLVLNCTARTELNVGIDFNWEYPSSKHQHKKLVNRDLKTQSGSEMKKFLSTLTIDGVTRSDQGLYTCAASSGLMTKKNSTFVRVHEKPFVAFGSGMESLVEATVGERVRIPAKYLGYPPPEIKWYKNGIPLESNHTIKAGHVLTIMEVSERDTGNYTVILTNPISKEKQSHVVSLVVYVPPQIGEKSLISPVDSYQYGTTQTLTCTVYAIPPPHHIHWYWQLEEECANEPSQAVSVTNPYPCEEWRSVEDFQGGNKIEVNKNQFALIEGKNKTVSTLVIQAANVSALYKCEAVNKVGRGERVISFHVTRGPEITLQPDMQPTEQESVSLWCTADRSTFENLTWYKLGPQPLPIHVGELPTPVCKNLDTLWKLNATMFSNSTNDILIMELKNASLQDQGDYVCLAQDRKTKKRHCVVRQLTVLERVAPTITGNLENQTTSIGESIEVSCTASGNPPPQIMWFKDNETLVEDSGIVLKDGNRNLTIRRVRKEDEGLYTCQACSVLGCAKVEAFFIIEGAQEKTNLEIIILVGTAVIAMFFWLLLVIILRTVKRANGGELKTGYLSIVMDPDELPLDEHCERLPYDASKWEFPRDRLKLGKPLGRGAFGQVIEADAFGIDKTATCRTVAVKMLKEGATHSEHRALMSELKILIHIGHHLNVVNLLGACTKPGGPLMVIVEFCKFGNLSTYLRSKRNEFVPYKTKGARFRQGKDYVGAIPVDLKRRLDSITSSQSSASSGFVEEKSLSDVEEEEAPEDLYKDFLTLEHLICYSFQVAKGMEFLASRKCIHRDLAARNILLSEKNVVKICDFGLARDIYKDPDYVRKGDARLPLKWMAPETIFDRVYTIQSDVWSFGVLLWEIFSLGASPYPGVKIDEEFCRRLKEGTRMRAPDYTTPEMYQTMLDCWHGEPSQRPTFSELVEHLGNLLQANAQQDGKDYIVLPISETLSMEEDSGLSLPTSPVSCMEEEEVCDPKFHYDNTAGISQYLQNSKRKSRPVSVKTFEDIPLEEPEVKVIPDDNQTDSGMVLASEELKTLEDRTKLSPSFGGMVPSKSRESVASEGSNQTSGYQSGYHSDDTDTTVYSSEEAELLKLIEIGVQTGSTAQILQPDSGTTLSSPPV

B1: 6A6 IgG (antibody, V domains shown)
VH: QMQLVQSGAEVKKPGASVKLSCKASGYTFSSYWMHWVRQAPGQRLEWMGEINPGNGHTNYNEKFKSRVTITVDKSASTAYMELSSLRSEDTAVYYCAKIWGPSLTSPFDYWGQGTLVTVSS
VL: SNFMLTQPPSVSVSPGKTARITCRGDNLGDVNVHWYQQRPGQAPVLVMYYDADRPSGIPERFSGSNSGNTATLTISGVEAGDEADYYCQVWDRTSEYVFGTGTKVTVLG
notes: Whole human IgG expressed in CHO DG44 cells; also called 6A6 antibody; anti-KDR 6A6 IgG
fold higher KDR neutralizing ability than IMC-1C11 IgG: ~2 fold
